In data set [1] the target is T1, alpha-synuclein monomer (human, UniProt P37840 1-140). The data set is described as follows: DNase I footprinting.
The target of data set [2] is gamma-synuclein (UniProt O76070 1-127). The data set is described as follows: MST.
Data set [3] deals with beta-synuclein (UniProt Q16143 1-134). The data set is described as follows: MST.
The target in data set [4] is T1, alpha-synuclein monomer. The data set is described as follows: EIS.

This is an account of results in PMC11456556.

Chain of beta-synuclein (Q16143 whole entry): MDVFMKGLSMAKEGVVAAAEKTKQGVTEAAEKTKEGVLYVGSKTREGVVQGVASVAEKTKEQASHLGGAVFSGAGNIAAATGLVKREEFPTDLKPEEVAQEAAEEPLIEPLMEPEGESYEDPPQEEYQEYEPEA
Chain of gamma-synuclein (O76070 whole entry): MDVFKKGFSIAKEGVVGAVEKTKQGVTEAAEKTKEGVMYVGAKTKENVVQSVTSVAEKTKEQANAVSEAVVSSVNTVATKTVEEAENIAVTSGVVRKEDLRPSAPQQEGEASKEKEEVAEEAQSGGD

B1: a-syn-1 (5'-fluorescein) (ssDNA)
DNA: ATAGTCCCATCATTCATTGTAAGGAAACGCTACGGGGTGGGTACGGCAAGATATTAGCAAGTGTCA
B1: the Kd (commonly the constant that tells how readily two partners part at equilibrium) in data set [1] came out at 28 ± 14 nM.

B2: a-syn-1 (5'-Cy5) (ssDNA)
DNA: ATAGTCCCATCATTCATTGTAAGGAAACGCTACGGGGTGGGTACGGCAAGATATTAGCAAGTGTCA
On to B2, for which the binding result in data set [2] and in data set [3] was “no binding” each time.

B3: a-syn-1 (thiol, on gold electrode) (ssDNA)
DNA: ATAGTCCCATCATTCATTGTAAGGAAACGCTACGGGGTGGGTACGGCAAGATATTAGCAAGTGTCA
modifications: thiol (end not stated), immobilized on gold
B3 displayed a Kd in data set [4] of 70 ± 3 nM.
